Experimental data: US20140213531A1 (POLYPHOR, published 2014)
Bridges are numbered along the chain shown (N, C = ends). [ ]: non-standard residue; d: D form. Pro(5R-Ph) = O=C(O)[C@@H]1CC[C@H](c2ccccc2)N1

T1: CathepsinG, from human neutrophils (human, UniProt P08311 21-244)
T1 sequence (looked up): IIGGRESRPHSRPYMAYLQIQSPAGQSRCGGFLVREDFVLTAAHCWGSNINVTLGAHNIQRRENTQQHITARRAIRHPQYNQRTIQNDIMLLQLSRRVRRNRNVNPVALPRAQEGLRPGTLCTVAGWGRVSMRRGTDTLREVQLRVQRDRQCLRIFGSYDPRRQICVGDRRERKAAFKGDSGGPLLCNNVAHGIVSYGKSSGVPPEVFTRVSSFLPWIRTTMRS

T2: Elastase from human neutrophils (human, UniProt P08246 30-247, limits assumed)
T2 sequence (looked up): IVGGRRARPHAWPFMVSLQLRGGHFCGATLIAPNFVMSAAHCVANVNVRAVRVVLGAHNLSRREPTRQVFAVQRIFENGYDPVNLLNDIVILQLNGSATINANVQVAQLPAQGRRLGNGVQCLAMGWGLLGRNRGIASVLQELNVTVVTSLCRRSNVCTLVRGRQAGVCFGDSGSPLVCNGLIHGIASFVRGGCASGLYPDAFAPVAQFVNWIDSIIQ

T3: Chymase, from human skin (human, UniProt P23946 22-247)
T3 sequence (looked up): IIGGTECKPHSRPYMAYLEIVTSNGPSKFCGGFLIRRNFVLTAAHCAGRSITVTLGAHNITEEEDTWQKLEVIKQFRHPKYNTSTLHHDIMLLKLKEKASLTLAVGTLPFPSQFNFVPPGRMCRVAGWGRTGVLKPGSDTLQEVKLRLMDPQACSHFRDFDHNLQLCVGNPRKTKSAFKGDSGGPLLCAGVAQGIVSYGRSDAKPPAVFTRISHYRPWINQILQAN


Assays:
Test in all cases: cell-based or functional assay
[1] = target: T1, CathepsinG, from human neutrophils
[2] = target: Trypsin, Iodination grade, from human pancreas (human, UniProt P07477 24-247)
[3] = target: T2, Elastase from human neutrophils
[4] = target: Chymotrypsin, from human pancreas (human, UniProt P17538 19-263)
[5] = target: T3, Chymase, from human skin

Sequence of Chymotrypsin, from human pancreas (P17538 19-263): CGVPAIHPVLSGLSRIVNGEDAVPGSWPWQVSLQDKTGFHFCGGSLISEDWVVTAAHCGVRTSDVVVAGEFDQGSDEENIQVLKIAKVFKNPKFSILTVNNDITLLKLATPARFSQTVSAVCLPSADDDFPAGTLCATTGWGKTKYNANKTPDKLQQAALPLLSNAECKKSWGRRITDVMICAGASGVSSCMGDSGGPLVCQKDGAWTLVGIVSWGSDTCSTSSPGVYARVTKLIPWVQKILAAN

Binder	IC50 [1]	% inhibition at 100 µM [2]	IC50 [3]	% inhibition at 100 µM [4]	% inhibition at 100 µM [5]	% inhibition at 100 µM [3]
cyclo(FCTKSDPPICS[dP][Pro(5R-Ph)]) (disulfide 2-10) [Example 48]	83 nmol	93%	> 100000 nmol	3%	–	–
RXTKSDPPIXF (HELM PEPTIDE1{R.[Nle].T.K.S.D.P.P.I.[Nle].F.[dP].P}$PEPTIDE1,PEPTIDE1,1:R1-13:R2$$$V2.0; SMILES CCCC[C@@H]1NC(=O)[C@H](CCCNC(=N)N)NC(=O)[C@@H]2CCCN2C(=O)[C@H]2CCCN2C(=O)[C@H](Cc2ccccc2)NC(=O)[C@H](CCCC)NC(=O)[C@H]([C@@H](C)CC)NC(=O)[C@@H]2CCCN2C(=O)[C@@H]2CCCN2C(=O)[C@H](CC(=O)O)NC(=O)[C@H](CO)NC(=O)[C@H](CCCCN)NC(=O)[C@H]([C@@H](C)O)NC1=O) [Example 8]	126 nmol	74.2%	–	5.6%	71.7%	0.8%
FCTKSDPPXCS (HELM PEPTIDE1{F.C.T.K.S.D.P.P.[Nle].C.S.[dP].P}$PEPTIDE1,PEPTIDE1,2:R3-10:R3|PEPTIDE1,PEPTIDE1,1:R1-13:R2$$$V2.0; SMILES CCCC[C@@H]1NC(=O)[C@@H]2CCCN2C(=O)[C@@H]2CCCN2C(=O)[C@H](CC(=O)O)NC(=O)[C@H](CO)NC(=O)[C@H](CCCCN)NC(=O)[C@H]([C@@H](C)O)NC(=O)[C@@H]2CSSC[C@H](NC1=O)C(=O)N[C@@H](CO)C(=O)N1CCC[C@@H]1C(=O)N1CCC[C@H]1C(=O)N[C@@H](Cc1ccccc1)C(=O)N2) [Example 15]	56 nmol	95%	> 100000 nmol	–	12.7%	–
FCTKSEPPICS (HELM PEPTIDE1{F.C.T.K.S.E.P.P.I.C.S.[dP].P}$PEPTIDE1,PEPTIDE1,2:R3-10:R3|PEPTIDE1,PEPTIDE1,1:R1-13:R2$$$V2.0; SMILES CC[C@H](C)[C@@H]1NC(=O)[C@@H]2CCCN2C(=O)[C@@H]2CCCN2C(=O)[C@H](CCC(=O)O)NC(=O)[C@H](CO)NC(=O)[C@H](CCCCN)NC(=O)[C@H]([C@@H](C)O)NC(=O)[C@@H]2CSSC[C@H](NC1=O)C(=O)N[C@@H](CO)C(=O)N1CCC[C@@H]1C(=O)N1CCC[C@H]1C(=O)N[C@@H](Cc1ccccc1)C(=O)N2) [Example 21]	97 nmol	95.6%	16.4 nmol	2.6%	5%	–

Continued, values first:

IC50 [1]	% inhibition at 100 µM [2]	IC50 [3]	% inhibition at 100 µM [4]	% inhibition at 100 µM [5]	% inhibition at 100 µM [3]	Binder
89 nmol	94%	> 100000 nmol	0%	–	–	FCTKSDPPICS (HELM PEPTIDE1{F.C.T.K.S.D.P.P.I.C.S.[dI].P}$PEPTIDE1,PEPTIDE1,2:R3-10:R3|PEPTIDE1,PEPTIDE1,1:R1-13:R2$$$V2.0; SMILES CC[C@@H](C)[C@H]1NC(=O)[C@H](CO)NC(=O)[C@@H]2CSSC[C@H](NC(=O)[C@H](Cc3ccccc3)NC(=O)[C@@H]3CCCN3C1=O)C(=O)N[C@@H]([C@@H](C)O)C(=O)N[C@@H](CCCCN)C(=O)N[C@@H](CO)C(=O)N[C@@H](CC(=O)O)C(=O)N1CCC[C@H]1C(=O)N1CCC[C@H]1C(=O)N[C@@H]([C@@H](C)CC)C(=O)N2) [Example 50]
89 nmol	94%	> 100000 nmol	0%	–	–	FCTKSDPPICS (HELM PEPTIDE1{F.C.T.K.S.D.P.P.I.C.S.[dI].P}$PEPTIDE1,PEPTIDE1,2:R3-10:R3|PEPTIDE1,PEPTIDE1,1:R1-13:R2$$$V2.0; SMILES CC[C@@H](C)[C@H]1NC(=O)[C@H](CO)NC(=O)[C@@H]2CSSC[C@H](NC(=O)[C@H](Cc3ccccc3)NC(=O)[C@@H]3CCCN3C1=O)C(=O)N[C@@H]([C@@H](C)O)C(=O)N[C@@H](CCCCN)C(=O)N[C@@H](CO)C(=O)N[C@@H](CC(=O)O)C(=O)N1CCC[C@H]1C(=O)N1CCC[C@H]1C(=O)N[C@@H]([C@@H](C)CC)C(=O)N2) [Example 73]
